± gives the uncertainty stated by the source.
Assay: amyloid nucleation score (Sup35N fusion, yeast selection) (log enrichment); library NNK2; higher = more nucleation; inactive = no reads after selection
How it was run: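 Sup35N was fused to peptides of 20 random codons and expressed in psi-negative yeast, which were induced with 100 μM copper sulfate for 24 hours and then grown on medium lacking adenine and uracil for 7 days at 30°C. Plasmid inserts from input and output were sequenced on Illumina. The nucleation score is the DiMSum log enrichment of output over input reads, centred on the mode score of non-aggregating sequences. Sequences with under 100 input reads were left out, and random libraries had three technical output replicates.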

| Substance | amyloid nucleation score |
| --- | --- |
| IIHYAFSRNWSP | 1.54 ± 0.31 |
| IIKANVSVRYVFDKFHKMVH | 2.83 ± 0.094 |
| IIKLPWFWDAFKAARQ | -0.069 ± 0.3 |
| IINSDLMCLVNLFVNDSMRG | 8.093 ± 0.059 |
| IIRDPTACTFLVCVSYME | 6.27 ± 0.059 |
| IIWPPMSWELISLNCQCVRK | -0.413 ± 0.63 |
| IIWYTTFVDLLTIIDDGRLW | 0.499 ± 0.49 |
| IIYYIMVTFWYSVYQPFRSF | -0.081 ± 0.79 |
| IKATCAGSNIFDNLALKDAS | inactive |
| IKCFAMGETFLAKVVHCTCW | 4.04 ± 0.065 |
| IKSSAFGAGVQLAAQRSVIT | -0.432 ± 0.29 |
| IKTRKHSGIMAC | 0.552 ± 0.32 |
| ILAQNCSFYLGVTLRIARRH | 1.21 ± 0.43 |
| ILGHLYLKIKKLSFVM | -0.658 ± 1 |
| ILGISCVFY | 7.227 ± 0.072 |
| ILGLFSFPKMPMVDYNIWMR | -0.137 ± 1.1 |
| ILGLPSINSSISLHKTITDP | 2.86 ± 0.056 |
| ILIMRKENGCLRELCFFCRA | inactive |
| ILIWVVNLYAYVNYFM | 3.1 ± 0.062 |
| ILKPDMWFKGARCDTNQLNC | -0.62 ± 0.39 |
| ILKPYCVCDLSNKLE | 0.199 ± 0.4 |
| ILLGYIISR | -0.636 ± 0.79 |

| Substance | amyloid nucleation score |
| --- | --- |
| ILLRWNSTSTEVHHVGPTWV | 0.872 ± 0.42 |
| ILNLLLVCLRIFDGLYLTRY | -1.06 ± 1.1 |
| ILNNMIL | 2.55 ± 0.21 |
| ILNPFCTRFK | -2.26 ± 0.64 |
| ILSCVARGCYYTTL | -1.38 ± 1.1 |
| ILSNMGSMVFTLCNRDSMLR | -0.523 ± 1 |
| ILSPTSL | 1.26 ± 0.52 |
| ILVYASWLGYHLDICSGFRS | 1.64 ± 0.089 |
| ILWDRISFNMLRLTRCRFFF | -0.632 ± 1.1 |
| ILYGVLTPYFHAVI | -0.003 ± 0.65 |
| IMIMYFCCDMGRLGP | 8.458 ± 0.056 |
| IMKYAHFNLK | 0.788 ± 0.51 |
| IMMQDWGIGFAFIGSPCRCD | 9.01 ± 0.048 |
| IMNGLMDFMLTKVLKDMFNW | -0.249 ± 1.1 |
| IMSMGGVLMFWS | 3.66 ± 0.12 |
| IMSSHKSAYRVFLHGLCRMV | -0.028 ± 0.74 |
| IMSSVELWENHYCGDVCMIV | 7.908 ± 0.049 |
| IMTHLVSTR | 1.5 ± 0.3 |
| IMVVEQYLYYYSKVCTFFSV | inactive |
| IMVVYETSVAGPRTSRGYCL | 4.729 ± 0.041 |
| IMYVMGVVFNTMWVSA | -1.11 ± 0.62 |
| INFMAVDDKPRVVVEPCPSA | 0.623 ± 0.62 |

| Substance | amyloid nucleation score |
| --- | --- |
| INFTYMGVMIFLSLLRQTWG | -0.311 ± 0.56 |
| INLYPR | inactive |
| INTSNQFFGYLYLWVSRYRY | -1.03 ± 0.54 |
| INVLFRVSPRISAVRNVCST | -0.271 ± 0.36 |
| INVYRPFYIVRHY | 5.101 ± 0.044 |
| IPAMETSTLAGYGPYSHNFG | -0.629 ± 0.26 |
| IPCVMG | 0.004 ± 0.65 |
| IPFLLTHDEHAAGCPAMKSY | 0.223 ± 0.33 |
| IPIIGITNEVPMSVRFPSIF | -1.07 ± 0.55 |
| IPMPSCVQYYSVDYRWASLL | -1.27 ± 0.44 |
| IPMSRGVQF | 0.82 ± 0.14 |
| IPTFKDLGFISESIMYNG | -1.38 ± 0.42 |
| IPYLNFDLYWLPVI | -0.792 ± 0.48 |
| IQCTCTPDYPVLSLSVMVNF | 8.361 ± 0.078 |
| IQLIRHCSSLNRTYQVSVSR | 0.364 ± 0.3 |
| IQWFIWN | 6.806 ± 0.027 |
| IRCQSVRDIGLYFDLDWVEK | 2.28 ± 0.085 |
| IRCRVRK | 0.484 ± 0.4 |
| IRCSVVDLCESSADSTSVRP | inactive |
| IRECLVRSATSFLLDHKRRC | -0.383 ± 1 |
| IRFTKYNDGCILIMPRDVQV | -0.995 ± 0.55 |
| IRKIMVF | inactive |

| Substance | amyloid nucleation score |
| --- | --- |
| IRNTLPAAIDVSATVTFVIL | 3.17 ± 0.12 |
| IRPSLGRR | 1.79 ± 0.26 |
| IRSSWIANVLSANSRGRNNQ | 0.382 ± 0.33 |
| IRVSLFYPSG | 3.89 ± 0.051 |
| IRWAQTFILLFVCSSARPTQ | 0.712 ± 0.36 |
| IRYTFSKLRSDCFMRCARSW | 0.898 ± 0.23 |
| ISFNQHTLSYKNVIFNCAFE | 4.16 ± 0.044 |
| ISFYVCVIML | 7.433 ± 0.065 |
| ISKLSARSLSRVVNLYKGVA | 0.85 ± 0.17 |
| ISKLTTRLLIYERNFPNWGH | 3.19 ± 0.17 |
| ISLAINLCALIDATRDWSPC | 6.12 ± 0.05 |
| ISQAWVS | -0.329 ± 0.25 |
| ISRKVAGSRDCINVRSTIGL | -1.14 ± 0.44 |
| ISSHVSCKSAFEAS | 0.395 ± 0.64 |
| ISSICFRNRDNFFLRAFGIG | inactive |
| ISTIWFRLQTGARKTRLLFD | -0.735 ± 0.79 |
| ISTTFV | 0.192 ± 0.79 |
| ISWAVKMHDIPV | 0.97 ± 0.58 |
| ISYTVDQRRFTSLVRCLYDH | 0.322 ± 0.57 |
| ITEYSYWSGIPSSMVSPIKH | -0.459 ± 0.28 |

From the supplement of paper PMC12042874
